# Measurements taken from publication PMC10398670 (EMBO Reports, 2023).
# B1: VDAC‐1::His (natural protein, C. elegans, UniProt Q21752 1-283, looked up)
# chain: MAPPTFADLGKSAKDLFNKGYNFGFLKIDSTTRAGDNKEVEFKSAASHNIGSGKLGGNLDVKYKIPQYGITLTEKWNTENQLGTVIEVNEQFGRGLKVTLDSLYAPHAGKRSGKVKLDWALPTARVTADVGVTSAPVINAAGVFSRDGWLIGAAATFDSSSNKLAATSLAFGHSTPQYTLHSFVINSTDFGASLYHKVASNVEVGTQLGWKVGGNGADYALATKYAPSRDLTVRAKVNSSSQVAVAATHSLSPALKLTLSTQFNLAANDAHKFGLGLEFDPSN
# Assays:
# GST::MIRO‐1 = molecular target: T1, GST::MIRO‐1 (C. elegans, UniProt Q94263 1-601); test: pull-down
# T1 sequence (looked up): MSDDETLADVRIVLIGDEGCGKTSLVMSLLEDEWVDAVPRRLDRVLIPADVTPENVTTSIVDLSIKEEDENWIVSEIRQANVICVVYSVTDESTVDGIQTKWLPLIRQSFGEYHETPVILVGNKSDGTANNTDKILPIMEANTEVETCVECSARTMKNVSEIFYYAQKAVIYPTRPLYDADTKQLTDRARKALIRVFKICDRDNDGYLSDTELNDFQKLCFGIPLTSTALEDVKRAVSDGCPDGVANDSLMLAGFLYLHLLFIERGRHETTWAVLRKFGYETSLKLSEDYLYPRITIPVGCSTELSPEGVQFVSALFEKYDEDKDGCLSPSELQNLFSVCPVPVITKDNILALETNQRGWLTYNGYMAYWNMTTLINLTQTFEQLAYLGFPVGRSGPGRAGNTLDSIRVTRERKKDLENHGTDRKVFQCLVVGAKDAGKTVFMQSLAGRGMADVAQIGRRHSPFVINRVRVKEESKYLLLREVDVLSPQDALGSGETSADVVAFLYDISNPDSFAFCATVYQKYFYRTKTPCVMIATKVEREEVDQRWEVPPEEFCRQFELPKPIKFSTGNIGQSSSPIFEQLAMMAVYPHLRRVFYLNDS
# MIRO‐1::His = molecular target: T2, MIRO‐1::His (C. elegans, UniProt Q94263 1-601); test: cross-linking
# T2 sequence (looked up): T1 sequence (looked up)
binder,measurement,setting,value
B1,binding result,GST::MIRO‐1,binds
same,binding result,MIRO‐1::His,binds
